We go through one substance from US20250154284A1.

The target of the assay is MASP-2-T1 (aa 1-414) (human) (UniProt O00187). The assay can be described thus: ELISA, antibody titrated on truncated human MASP-2 T1 (aa 1-414). (In general: ELISA stands for enzyme-linked immunosorbent assay.)

Usually EC50 (read off the curve) stands for the midpoint of the concentration-response curve. The low end stands for a more potent agent, the high end for a less potent agent.

As to benchmark antibody narsoplimab, the EC50 (read off the curve) stood at 0.01 µg/mL.
